Experimental data taken from patent publication US20260055210A1.
Where “and” joins values, the source holds several entries; their conditions need not be identical. Equal values may be shown once.

Key:
[1] = molecular target: cMPL/TPO receptor on M-07e cells (human) (UniProt P40238); assay: cell-based or functional assay
[2] = molecular target: human thrombopoietin receptor cMPL expressed on the surface of Freestyle HEK293 cells (human) (UniProt P40238); assay: flow cytometry on human cMPL-expressing HEK293 cells, fluorescent anti-IgG1 secondary antibody
[3] = molecular target: mouse thrombopoietin receptor cMPL expressed on the surface of Freestyle HEK293 cells (mouse) (UniProt Q08351); assay: flow cytometry on mouse cMPL-expressing HEK293 cells, fluorescent anti-IgG1 secondary antibody
Chain of mouse thrombopoietin receptor cMPL expressed on the surface of Freestyle HEK293 cells (mouse) (Q08351 26-625): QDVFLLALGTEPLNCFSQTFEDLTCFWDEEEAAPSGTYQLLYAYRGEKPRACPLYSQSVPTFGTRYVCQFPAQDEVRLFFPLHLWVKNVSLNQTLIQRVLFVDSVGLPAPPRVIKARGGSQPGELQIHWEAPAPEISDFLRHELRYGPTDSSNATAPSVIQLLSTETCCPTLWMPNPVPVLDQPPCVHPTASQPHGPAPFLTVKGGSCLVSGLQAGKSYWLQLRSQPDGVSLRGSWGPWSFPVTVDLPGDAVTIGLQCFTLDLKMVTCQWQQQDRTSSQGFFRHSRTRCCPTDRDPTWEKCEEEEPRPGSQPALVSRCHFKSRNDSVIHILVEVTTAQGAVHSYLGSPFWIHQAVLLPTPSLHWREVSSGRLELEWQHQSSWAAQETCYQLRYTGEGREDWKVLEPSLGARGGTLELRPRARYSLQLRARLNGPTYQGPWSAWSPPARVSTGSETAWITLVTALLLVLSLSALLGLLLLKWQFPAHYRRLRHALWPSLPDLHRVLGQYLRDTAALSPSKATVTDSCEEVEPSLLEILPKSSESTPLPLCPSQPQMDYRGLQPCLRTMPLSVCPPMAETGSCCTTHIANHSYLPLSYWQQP

[4] = molecular target: Flt3 receptor on OCI-AML5 cells (human) (UniProt P36888); assay: cell-based or functional assay
Chain of Flt3 receptor on OCI-AML5 cells (human) (P36888 27-993): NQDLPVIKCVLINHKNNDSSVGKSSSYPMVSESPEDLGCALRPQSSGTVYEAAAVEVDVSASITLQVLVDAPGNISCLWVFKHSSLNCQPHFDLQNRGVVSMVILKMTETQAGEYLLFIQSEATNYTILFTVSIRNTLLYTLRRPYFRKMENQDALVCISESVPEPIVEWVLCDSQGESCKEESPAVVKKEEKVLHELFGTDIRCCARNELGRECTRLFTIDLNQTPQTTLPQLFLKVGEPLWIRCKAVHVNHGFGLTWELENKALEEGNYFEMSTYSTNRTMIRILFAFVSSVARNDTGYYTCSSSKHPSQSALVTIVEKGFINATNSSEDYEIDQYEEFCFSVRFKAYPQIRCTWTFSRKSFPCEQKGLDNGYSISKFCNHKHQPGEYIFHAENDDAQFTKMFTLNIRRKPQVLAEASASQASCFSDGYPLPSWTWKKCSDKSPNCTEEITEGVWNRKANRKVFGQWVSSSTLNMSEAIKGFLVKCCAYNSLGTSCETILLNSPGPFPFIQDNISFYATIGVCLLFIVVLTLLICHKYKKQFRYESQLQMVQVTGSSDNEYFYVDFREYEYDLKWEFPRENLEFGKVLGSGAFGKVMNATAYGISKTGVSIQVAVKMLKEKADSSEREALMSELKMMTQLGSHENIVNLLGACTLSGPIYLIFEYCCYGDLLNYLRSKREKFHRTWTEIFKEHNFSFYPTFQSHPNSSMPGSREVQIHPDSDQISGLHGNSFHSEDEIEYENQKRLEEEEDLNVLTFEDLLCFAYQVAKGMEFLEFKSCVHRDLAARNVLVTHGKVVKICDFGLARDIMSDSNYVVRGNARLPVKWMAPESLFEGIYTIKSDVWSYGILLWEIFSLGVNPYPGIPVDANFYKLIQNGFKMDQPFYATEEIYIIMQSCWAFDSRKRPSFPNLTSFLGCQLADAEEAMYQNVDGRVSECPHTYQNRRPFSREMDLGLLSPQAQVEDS

A percent of M-07e cells positive for Akt phosphorylation [1] of less than 5%, a percent of M-07e cells positive for Erk1/2 phosphorylation at 25 ng/ml TPOm [1] of less than 5% and a percent of M-07e cells positive for Erk1/2 phosphorylation at 800 ng/ml TPOm [1] of 20% were found for thrombopoietin mimetic (TPOm) peptide in this work.

An EC50 of M-07e cell proliferation, XTT assay [1] of 12.1 nM, a percent of M-07e cells positive for Akt phosphorylation [1] of 20% and a percent of M-07e cells positive for Erk1/2 phosphorylation at 6.67 nM [1] of 60% were found for Nplate (Romiplostim) (Fc fusion) in this work. It also gave a percent of M-07e cells positive for Erk1/2 phosphorylation at 13.33 nM [1] of 60%, a percent of M-07e cells positive for Erk1/2 phosphorylation, 25 ng/ml to 800 ng/ml romiplostim [1] of 60% and a percentage of bound cells [2] greater than 30 percent. For the same substance, the percentage of bound cells [3] was greater than 40 percent.

An apoptosis of starved OCI-AML5 cells, Annexin V flow cytometry [4] of 53.8%, a live cells, starved OCI-AML5, Annexin V flow cytometry [4] of 45.8% and a percent of OCI-AML5 cells positive for Erk1/2 phosphorylation [4] of 75% were found for FL monomer Fc fusion polypeptide in this work.

“FLT3L-romiplostim fusion polypeptide without a His-Tag (Fc fusion)” was tested, and the percentage of bound cells [2] was > 30 percent and 40 percent and the percentage of bound cells [3] was > 40 percent and 50 percent.
